A short description of the data set: protein stability index of a GFP-peptide fusion (GPS, HEK-293T) (PSI 1-6); higher = more stable. Particulars: c terminus: a fixed tail appended.

± gives the standard deviation.

The values below come from the supplement of paper PMC10567573.
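Further: 24-mer peptide tiles fused after GFP, lentivirally expressed, FACS-sorted into six equal bins by GFP/DsRed ratio, decoded by Illumina sequencing, PSI is the read-weighted mean bin number.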

On to TTALLHYQLPQMPDVVVRSFMTWL [MED27], for which the protein stability index (treatment: DMSO) worked out at 2.59 ± 0.32 and the protein stability index (treatment: MLN4924 1 uM, 8 h) worked out at 2.62 ± 0.3.
Consider TVEKDKVTGETRVLSSTTLLPRQP [PALM], for which the protein stability index was determined as 4.86 ± 0.23 (treatment: DMSO) and 4.87 ± 0.084 (treatment: MLN4924 1 uM, 8 h).
For TVIFYGADSEQADIARMLYKDTCH [ZMYND11] the same measures were 2.28 ± 0.17 and 2.68 ± 0.4.
As for TWEHSNLEVNKPKNRYANVIAYDH [PTPRD], the protein stability index worked out at 2.98 ± 0.27 (treatment: DMSO) and 3.02 ± 0.32 (treatment: MLN4924 1 uM, 8 h).
For TWGQIKKTTQEAEKLLERQGQAKT [CDK11A] the same measures were 4.98 ± 0.11 and 5.01 ± 0.072.
Taken in the same sequence, the figures for VAGILSLLLGTAYSFYLFHPLAYG [POMT2] were 3.16 ± 0.24 and 2.98 ± 0.3.
VASYILASHNGISYKDLDVIFGVE [TENT5D] gave a protein stability index (treatment: DMSO) of 2.93 ± 0.85 and a protein stability index (treatment: MLN4924 1 uM, 8 h) of 2.89 ± 1.4.
Taken in the same sequence, the figures for VAVKKKLQLYFWKDREFHELQGDF [VPS39] were 2.12 ± 0.3 and 2.06 ± 0.58.
Taken in the same sequence, the figures for VCMTFMKQIAGGDVTAKNIWLAES [INTS3] were 2.53 ± 0.62 and 2.92 ± 0.6.
In the case of VDAGAEPGRSRMISQEEFARQLQL [LPCAT4], the protein stability index came to 4.52 ± 0.27 (treatment: DMSO) and 4.5 ± 0.15 (treatment: MLN4924 1 uM, 8 h).
For the sequence VDSLESHIPSQEVPGTQVGQGGKL [ZNF263], the protein stability index was determined as 5.33 ± 0.2 (treatment: DMSO) and 5.16 ± 0.22 (treatment: MLN4924 1 uM, 8 h).
Regarding VEASCSVCLEYLKEPVIIECGHNF [TRIM39], the protein stability index came to 2.07 ± 0.39 (treatment: DMSO) and 2.25 ± 0.21 (treatment: MLN4924 1 uM, 8 h).
As for VEKVLRRWVDEEWPKRERGDPSRH [EDARADD], the protein stability index runs as follows: (treatment: DMSO) 2.97 ± 0.43; (treatment: MLN4924 1 uM, 8 h) 3.28 ± 0.67.
For VETAFERLQQELEQQRCLLLARLR [TRIM15], the protein stability index is, setting by setting: (treatment: DMSO) 2.81 ± 0.33; (treatment: MLN4924 1 uM, 8 h) 2.86 ± 0.3.
VEYEERESEFDIEDEDKSEPEQTG [RBBP5]: the protein stability index was determined as 5.64 ± 0.23 (treatment: DMSO) and 5.54 ± 0.32 (treatment: MLN4924 1 uM, 8 h).
Take VFGFIAAYVLSKYQYFVCPVEYRS [CDS1]: the protein stability index was 3.38 ± 0.39 (treatment: DMSO) and 3.15 ± 0.27 (treatment: MLN4924 1 uM, 8 h).
For VGDLMGSLAYCLACGGGHLLPYFY [DHCR7] the same measures were 3.12 ± 0.28 and 3.47 ± 0.39.
VGEKNCTGPPCDRQWTVSDWGPCS [ADAMTSL2]: the protein stability index is 3.53 ± 0.3 (treatment: DMSO) and 3.32 ± 0.66 (treatment: MLN4924 1 uM, 8 h).
For VGGYFVDKFVATMYHYLQFAYYKL [P3H4] the same measures were 3.67 ± 0.73 and 2.56 ± 0.048.
For VGRIIAPLLSGVAQEVSPCGPPSL [MFSD9] the same measures were 2.72 ± 0.23 and 2.65 ± 0.29.
In turn, VIFGVELPGNEEFQVVKDAVLDCL [TENT5D] yielded a protein stability index (treatment: DMSO) of 2.23 ± 0.41 and a protein stability index (treatment: MLN4924 1 uM, 8 h) of 2.25 ± 0.24.
For VISLLNEPNTFSPANVDASVMYRK [CDC34] the same measures were 2.92 ± 0.25 and 3.07 ± 0.21.
For VKLWKVSERDKRPEGYNLKDEEGR [PPP2R2B], the protein stability index is, setting by setting: (treatment: DMSO) 4.07 ± 0.5; (treatment: MLN4924 1 uM, 8 h) 4.336 ± 0.038.
For VKVIRDFTTNKCKGFGFVTMTNYD [ELAVL3] the same measures were 2.35 ± 0.47 and 2.15 ± 0.22.
In turn, VLALEERFGVRPKVTGYLISYSSM [MFSD9] had a protein stability index (treatment: DMSO) of 2.17 ± 0.53 and a protein stability index (treatment: MLN4924 1 uM, 8 h) of 1.95 ± 0.099.
For VLGAHRGHPVGLALEAAVHVQKLS [TRIM14] the same measures were 2.63 ± 0.3 and 2.91 ± 0.26.
Turning to VLGTKVDAERDGVKVPTTLAEYCV [CDC34], the protein stability index came out at 4.073 ± 0.014 (treatment: DMSO) and 4.07 ± 0.12 (treatment: MLN4924 1 uM, 8 h).
As to VLLMAICIVSPDRPGVQDAALIEA [VDR], the protein stability index reads like this: (treatment: DMSO) 2.8 ± 0.33; (treatment: MLN4924 1 uM, 8 h) 2.77 ± 0.66.
As for VLRGLARPEHPPPAPTGQDDPQSQ [TMEM175], the protein stability index was determined as 5.39 ± 0.45 (treatment: DMSO) and 5.54 ± 0.22 (treatment: MLN4924 1 uM, 8 h).
In the case of VLVAETTMARIRRVYVSGLMKGGA [APMAP], the protein stability index by setting is: (treatment: DMSO) 2.17 ± 0.27; (treatment: MLN4924 1 uM, 8 h) 2.1 ± 0.28.
As for VNAKDNMWLTPLHRAVASRSEEAV [ANKRD44], the protein stability index is, setting by setting: (treatment: DMSO) 4.07 ± 0.29; (treatment: MLN4924 1 uM, 8 h) 4.02 ± 0.44.
VNFMYLQSLLQPKSSSVDSELTSL [SMG5] came in with a protein stability index (treatment: DMSO) of 2.21 ± 0.39 and a protein stability index (treatment: MLN4924 1 uM, 8 h) of 2.15 ± 0.39.
For the setting “treatment: MLN4924 1 uM, 8 h”, VNLPISFFRKLLDCCQVSAPNRFF [NLN] had a protein stability index of 2.62 ± 0.6.
Take VNYLPQNMTQDEFKSLFGSIGDIE [ELAVL3]: the protein stability index reads like this: (treatment: DMSO) 3.8 ± 0.11; (treatment: MLN4924 1 uM, 8 h) 4 ± 0.27.
Take VPIGASIYVIGDLDTGTNYDYVRE [GAN]: the protein stability index by setting is: (treatment: DMSO) 2.29 ± 0.45; (treatment: MLN4924 1 uM, 8 h) 2.21 ± 0.31.
Taken in the same sequence, the figures for VQELCKQLHAKIDAAEEEKYDMEV [TNNI2] were 4.81 ± 0.28 and 4.74 ± 0.1.
